{"source": "patent US20090042250", "assay_in_all_cases": "cell_activity", "key": {"[1]": {"system": "ZFN 12172 (synthetic construct)", "details": "pair 12172/12176, CHO K-1, Cel-1 assay 2 days post-transfection"}, "[2]": {"system": "ZFN 12170 (synthetic construct)", "details": "pair 12170/12176, CHO K-1, Cel-1 assay 2 days post-transfection"}, "[3]": {"system": "ZFN 12029 (synthetic construct)", "details": "pair 12029/12030, CHO K-1, Cel-1 assay 2 days post-transfection"}, "[4]": {"system": "ZFN 12176 (synthetic construct)", "details": "pair 12172/12176 (3.0 with 12170), CHO K-1, Cel-1 assay 2 days post-transfection"}, "[5]": {"system": "ZFN 12030 (synthetic construct)", "details": "pair 12029/12030, CHO K-1, Cel-1 assay 2 days post-transfection"}}, "data": [{"sequence": "AAGGAGGCAAAGACAAAG (double strand) [FUT8 exon 10 12170/12172 half-site]", "values": [{"measurement": "activity (% chromosomes modified)", "setting": "[1]", "value": 4.4}, {"measurement": "activity (% chromosomes modified)", "setting": "[2]", "value": 3}]}, {"sequence": "GTCTCGGATGCT (double strand) [FUT8 12029 half-site]", "values": [{"measurement": "activity (% chromosomes modified)", "setting": "[3]", "value": 3.3}]}, {"sequence": "AAGAAGGGTCATCAG (double strand) [FUT8 exon 10 12176 half-site]", "values": [{"measurement": "activity (% chromosomes modified)", "setting": "[4]", "value": 4.4}]}, {"sequence": "AAGGACACACTG (double strand) [FUT8 12030 half-site]", "values": [{"measurement": "activity (% chromosomes modified)", "setting": "[5]", "value": 3.3}]}]}
